Test results from the supplement of paper PMC10567573.

B1: CDKN1A (parent)
chain: GRKRRQTSMTDFYHSKRRLIFSKR
B2: SLC6A17 (parent)
chain: KAVEEELDAEDRPAWNSKLQYILA

Variants of: B1
Experiment: protein stability index of a GFP-peptide fusion (GPS, HEK-293T) (PSI 1-6); higher = more stable
Details: c terminus: a fixed tail appended
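Further: lentivirally expressed fusions sorted by FACS into six bins by GFP to DsRed ratio, PSI derived from sequencing read proportions per bin multiplied by bin number.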

| Variant | protein stability index |
| --- | --- |
| K3A | 3.12 |
| K3E | 2.19 |
| K3H | 3.57 |
| K3L | 3.18 |
| K3D | 3.2 |
| K3I | 2.76 |
| K3C | 3.54 |
| K3M | 2.76 |
| K3F | 2.4 |
| G1M | 2.88 |
| G1T | 2.06 |
| G1Q | 3.03 |
| G1L | 2.86 |
| G1V | 2.06 |
| G1Y | 2.99 |
| G1E | 3.02 |
| G1I | 2.94 |
| G1S | 3.84 |
| G1F | 2.85 |
| G1C | 3.45 |
| G1K | 3.34 |
| G1H | 3.16 |

| Variant | protein stability index |
| --- | --- |
| G1W | 3.87 |
| G1D | 3.06 |
| G1N | 2.55 |
| G1R | 3.87 |
| G1P | 3.63 |
| G1A | 2.81 |
| R2W | 2.53 |
| R2E | 4.5 |
| R2H | 2.33 |
| R2A | 2.05 |
| R2F | 3.25 |
| R2T | 2.8 |
| R2L | 2.6 |
| R2D | 2.78 |
| R2V | 3.22 |
| R2S | 3.05 |
| R2Y | 2.22 |
| R2N | 2.74 |
| R2C | 3.93 |
| R2K | 3.08 |
| R2G | 3.19 |
| R2M | 3.79 |

Variants of: B2
Experiment: as above
Details: c terminus: a fixed tail appended

| Variant | protein stability index |
| --- | --- |
| KAVEEELDAEDRPAWNSKLQYILG | 3.52 |
| KAVEEELDAEDRPAWNSKLQYILK | 3.08 |
| KAVEEELDAEDRPAWNSKLQYILF | 2.73 |
| KAVEEELDAEDRPAWNSKLQYILP | 3.25 |
| KAVEEELDAEDRPAWNSKLQYILY | 2.18 |
| KAVEEELDAEDRPAWNSKLQYILT | 2.85 |
| KAVEEELDAEDRPAWNSKLQYILD | 3.55 |
| KAVEEELDAEDRPAWNSKLQYILM | 2.06 |
| KAVEEELDAEDRPAWNSKLQYILE | 2.63 |
| KAVEEELDAEDRPAWNSKLQYILR | 3.27 |
| KAVEEELDAEDRPAWNSKLQYILI | 2.23 |
| KAVEEELDAEDRPAWNSKLQYILL | 2.28 |
| KAVEEELDAEDRPAWNSKLQYILH | 2.15 |
| KAVEEELDAEDRPAWNSKLQYILV | 1.68 |
| KAVEEELDAEDRPAWNSKLQYILS | 2.82 |
| KAVEEELDAEDRPAWNSKLQYILW | 2.06 |
| KAVEEELDAEDRPAWNSKLQYILN | 3.48 |
| KAVEEELDAEDRPAWNSKLQYILC | 2.46 |
| KAVEEELDAEDRPAWNSKLQYIYA | 3.01 |
| KAVEEELDAEDRPAWNSKLQYIIA | 2.64 |
| KAVEEELDAEDRPAWNSKLQYIMA | 2.6 |
| KAVEEELDAEDRPAWNSKLQYIEA | 4.91 |
| KAVEEELDAEDRPAWNSKLQYIRA | 4.42 |

| Variant | protein stability index |
| --- | --- |
| KAVEEELDAEDRPAWNSKLQYITA | 3.91 |
| KAVEEELDAEDRPAWNSKLQYIPA | 3.97 |
| KAVEEELDAEDRPAWNSKLQYIFA | 3.03 |
| KAVEEELDAEDRPAWNSKLQYIDA | 4.9 |
| KAVEEELDAEDRPAWNSKLQYICA | 3.59 |
| KAVEEELDAEDRPAWNSKLQYIKA | 3.89 |
| KAVEEELDAEDRPAWNSKLQYINA | 4.18 |
| KAVEEELDAEDRPAWNSKLQYIAA | 3.9 |
| KAVEEELDAEDRPAWNSKLQYIVA | 3.17 |
| KAVEEELDAEDRPAWNSKLQYIQA | 3.82 |
| KAVEEELDAEDRPAWNSKLQYIWA | 3.19 |
| KAVEEELDAEDRPAWNSKLQYIHA | 3.84 |
| KAVEEELDAEDRPAWNSKLQYIGA | 3.99 |
| KAVEEELDAEDRPAWNSKLQYISA | 4.23 |
| KAVEEELDAEDRPAWNSKLQPILA | 4.58 |
| KAVEEELDAEDRPAWNSKLQVILA | 2.08 |
| KAVEEELDAEDRPAWNSKLQNILA | 3.42 |
| KAVEEELDAEDRPAWNSKLQIILA | 3.09 |
| KAVEEELDAEDRPAWNSKLQAILA | 3.99 |
| KAVEEELDAEDRPAWNSKLQQILA | 2.75 |
| KAVEEELDAEDRPAWNSKLQMILA | 3.4 |
| KAVEEELDAEDRPAWNSKLQHILA | 3.16 |
| KAVEEELDAEDRPAWNSKLQSILA | 3.92 |

| Variant | protein stability index |
| --- | --- |
| KAVEEELDAEDRPAWNSKLQKILA | 3.67 |
| KAVEEELDAEDRPAWNSKLQDILA | 3.92 |
| KAVEEELDAEDRPAWNSKLQCILA | 4.37 |
| KAVEEELDAEDRPAWNSKLQLILA | 2.83 |
| KAVEEELDAEDRPAWNSKLQFILA | 2.9 |
| KAVEEELDAEDRPAWNSKLQRILA | 2.8 |
| KAVEEELDAEDRPAWNSKLQYALA | 3.8 |
| KAVEEELDAEDRPAWNSKLQYNLA | 4.41 |
| KAVEEELDAEDRPAWNSKLQYDLA | 4.86 |
| KAVEEELDAEDRPAWNSKLQYELA | 5.01 |
| KAVEEELDAEDRPAWNSKLQYTLA | 4.4 |
| KAVEEELDAEDRPAWNSKLQYCLA | 3.13 |
| KAVEEELDAEDRPAWNSKLQYLLA | 2.83 |
| KAVEEELDAEDRPAWNSKLQYWLA | 2.9 |
| KAVEEELDAEDRPAWNSKLQYRLA | 4.15 |
| KAVEEELDAEDRPAWNSKLQYMLA | 1.79 |
| KAVEEELDAEDRPAWNSKLQYKLA | 3.78 |
| KAVEEELDAEDRPAWNSKLQYYLA | 3.94 |
| KAVEEELDAEDRPAWNSKLQYGLA | 4.06 |
| KAVEEELDAEDRPAWNSKLQYPLA | 4.44 |
| KAVEEELDAEDRPAWNSKLQYVLA | 3.04 |
| KAVEEELDAEDRPAWNSKLQYFLA | 2.2 |
| KAVEEELDAEDRPAWNSKLQYHLA | 4.5 |
